Experimental data published in the Human Domainome abundance scans (Beltran et al. 2025).
± gives the uncertainty stated by the source.

B1: Ventral anterior homeobox 1, residues 102 to 157; numbered along this chain, Q5SQQ9 (parent)
chain: RTRTSFTAEQLYRLEMEFQRCQYVVGRERTELARQLNLSETQVKVWFQNRRTKQKK

Variants of: B1
Experiment: abundance fitness (aPCA) (normalised: wild type 0, dead -1); higher = more abundant; growth selection in yeast, the domain comes from the species named
Conditions: Homo sapiens

| Variant | abundance fitness |
| --- | --- |
| L11E | 0.308 ± 0.14 |
| L11G | -0.254 ± 0.1 |
| L11N | 0.18 ± 0.17 |
| L11Q | 0.231 ± 0.17 |
| L11I | -0.059 ± 0.21 |
| L11F | -0.159 ± 0.16 |
| L11K | -0.274 ± 0.26 |
| L11H | 0.005 ± 0.12 |
| L11Y | -0.335 ± 0.16 |
| L11P | -0.893 ± 0.17 |
| L11M | -0.172 ± 0.19 |
| L11W | -0.494 ± 0.16 |
| Q22Y | -0.641 ± 0.35 |
| Q22F | -0.585 ± 0.38 |
| Q22L | -0.437 ± 0.13 |
| Q22V | -0.324 ± 0.12 |
| Q22M | -0.249 ± 0.21 |
| Q22E | 0.024 ± 0.16 |
| Q22T | -0.17 ± 0.16 |
| Q22A | -0.033 ± 0.12 |
| Q22S | -0.087 ± 0.12 |
| Q22I | -0.38 ± 0.25 |
| Q22W | -0.383 ± 0.17 |
| Q22N | -0.285 ± 0.27 |

| Variant | abundance fitness |
| --- | --- |
| Q22H | -0.251 ± 0.24 |
| Q22R | -0.32 ± 0.12 |
| Q22G | 0.033 ± 0.1 |
| Q22P | -0.133 ± 0.18 |
| Q22D | -0.081 ± 0.16 |
| Q22K | -0.103 ± 0.21 |
| G26S | -0.151 ± 0.083 |
| G26N | -0.318 ± 0.13 |
| G26D | -0.153 ± 0.12 |
| G26K | -0.15 ± 0.22 |
| G26T | -0.453 ± 0.11 |
| G26E | -0.249 ± 0.24 |
| G26H | -0.413 ± 0.12 |
| G26Y | -0.342 ± 0.11 |
| G26P | -0.208 ± 0.11 |
| G26Q | -0.23 ± 0.19 |
| G26V | -0.577 ± 0.13 |
| G26C | -0.547 ± 0.15 |
| G26M | -0.351 ± 0.17 |
| G26I | -0.63 ± 0.12 |
| G26A | -0.155 ± 0.1 |
| G26W | -0.892 ± 0.3 |
| G26F | -0.278 ± 0.12 |
| G26L | -0.297 ± 0.094 |

| Variant | abundance fitness |
| --- | --- |
| A8L | -0.14 ± 0.11 |
| A8M | -0.104 ± 0.21 |
| A8S | -0.064 ± 0.13 |
| A8N | 0.059 ± 0.29 |
| A8Q | -0.301 ± 0.2 |
| A8V | -0.154 ± 0.11 |
| A8W | -0.348 ± 0.16 |
| A8E | 0 ± 0.16 |
| A8Y | -0.158 ± 0.29 |
| A8P | -0.049 ± 0.19 |
| A8C | -0.212 ± 0.17 |
| A8F | -0.473 ± 0.21 |
| A8R | -0.332 ± 0.11 |
| A8G | -0.205 ± 0.084 |
| A8H | -0.817 ± 0.39 |
| A8I | -0.363 ± 0.4 |
| E9H | -0.509 ± 0.25 |
| E9R | -0.455 ± 0.11 |
| E9L | -0.439 ± 0.11 |
| E9K | -0.453 ± 0.29 |
| E9Q | -0.207 ± 0.21 |
| E9F | 0.005 ± 0.16 |
| E9A | -0.244 ± 0.13 |
| E9N | -0.733 ± 0.34 |

| Variant | abundance fitness |
| --- | --- |
| E9M | -0.235 ± 0.18 |
| E9W | -0.12 ± 0.13 |
| E9T | -0.464 ± 0.19 |
| E9I | -0.456 ± 0.21 |
| E9C | -0.299 ± 0.18 |
| E9Y | -0.398 ± 0.23 |
| E9S | -0.408 ± 0.14 |
| E9P | -0.669 ± 0.22 |
| E9D | -0.135 ± 0.18 |
| E9V | -0.157 ± 0.11 |
| T7P | -0.734 ± 0.24 |
| T7N | -0.105 ± 0.27 |
| T7Y | -0.652 ± 0.34 |
| T7E | -0.279 ± 0.13 |
| T7D | -0.043 ± 0.18 |
| T7C | -0.335 ± 0.18 |
| T7L | -0.704 ± 0.15 |
| T7M | -0.452 ± 0.23 |
| T7V | -0.466 ± 0.13 |
| T7F | -0.77 ± 0.27 |
| T7I | -0.56 ± 0.21 |
| T7K | -0.589 ± 0.23 |
| T7H | -0.407 ± 0.28 |
| T7S | -0.158 ± 0.14 |

| Variant | abundance fitness |
| --- | --- |
| T7R | -0.499 ± 0.11 |
| T7G | -0.311 ± 0.09 |
| T7W | -0.925 ± 0.25 |
| T7A | -0.411 ± 0.12 |
| V25Q | 0.121 ± 0.17 |
| V25S | -0.071 ± 0.13 |
| V25A | 0.042 ± 0.14 |
| V25Y | -0.377 ± 0.29 |
| V25K | -0.18 ± 0.16 |
| V25E | 0.204 ± 0.17 |
| V25W | -0.633 ± 0.16 |
| V25R | -0.16 ± 0.11 |
| V25N | -0.326 ± 0.42 |
| V25C | 0.114 ± 0.25 |
| V25G | 0.003 ± 0.11 |
| V25H | -0.011 ± 0.29 |
| V25P | -0.29 ± 0.18 |
| V25M | -0.396 ± 0.21 |
| V25I | -0.226 ± 0.2 |
| V25T | -0.087 ± 0.12 |
| V25F | -0.073 ± 0.22 |
| M16N | -0.407 ± 0.26 |
| M16Q | 0.008 ± 0.2 |
| M16T | -0.076 ± 0.2 |

| Variant | abundance fitness |
| --- | --- |
| M16S | -0.027 ± 0.13 |
| M16V | -0.09 ± 0.12 |
| M16G | -0.109 ± 0.11 |
| M16F | -0.285 ± 0.31 |
| M16Y | -0.173 ± 0.22 |
| M16R | -0.233 ± 0.11 |
| M16P | -1.12 ± 0.37 |
| M16K | -0.301 ± 0.21 |
| M16D | 0.075 ± 0.23 |
| M16W | -0.291 ± 0.16 |
| M16I | -0.295 ± 0.25 |
| M16A | -0.043 ± 0.14 |
| M16C | -0.055 ± 0.21 |
| Y23I | -0.117 ± 0.29 |
| Y23S | 0.03 ± 0.15 |
| Y23D | -0.164 ± 0.42 |
| Y23W | -0.527 ± 0.35 |
| Y23F | -0.088 ± 0.24 |
| Y23Q | 0.132 ± 0.34 |
| Y23V | -0.045 ± 0.21 |
| Y23H | 0.04 ± 0.34 |
| Y23N | 0.069 ± 0.46 |
| Y23M | 0.181 ± 0.28 |
| Y23A | 0.082 ± 0.19 |

| Variant | abundance fitness |
| --- | --- |
| Y23C | -0.145 ± 0.26 |
| Y23K | 0.051 ± 0.29 |
| Y23G | -0.21 ± 0.2 |
| Y23E | 0.012 ± 0.35 |
| Y23L | 0.055 ± 0.15 |
| R13N | -0.283 ± 0.2 |
| R13V | -0.311 ± 0.15 |
| R13E | -0.513 ± 0.29 |
| R13P | -0.849 ± 0.15 |
| R13K | -0.004 ± 0.29 |
| R13I | 0.092 ± 0.18 |
| R13C | -0.161 ± 0.13 |
| R13F | -0.29 ± 0.18 |
| R13M | -0.022 ± 0.2 |
| R13Q | 0.163 ± 0.18 |
| R13H | -0.066 ± 0.15 |
| R13L | -0.068 ± 0.1 |
| R13A | 0.089 ± 0.12 |
| R13Y | -0.316 ± 0.19 |
| R13G | -0.207 ± 0.18 |
| R13S | -0.074 ± 0.097 |
| R13W | -0.211 ± 0.18 |
| R13T | -0.113 ± 0.13 |
